This assay has as its target full-length human EphA2 protein on cells (human, UniProt P29317 24-976). Briefly: cell-based or functional assay.

Sequence of full-length human EphA2 protein on cells (P29317 24-976): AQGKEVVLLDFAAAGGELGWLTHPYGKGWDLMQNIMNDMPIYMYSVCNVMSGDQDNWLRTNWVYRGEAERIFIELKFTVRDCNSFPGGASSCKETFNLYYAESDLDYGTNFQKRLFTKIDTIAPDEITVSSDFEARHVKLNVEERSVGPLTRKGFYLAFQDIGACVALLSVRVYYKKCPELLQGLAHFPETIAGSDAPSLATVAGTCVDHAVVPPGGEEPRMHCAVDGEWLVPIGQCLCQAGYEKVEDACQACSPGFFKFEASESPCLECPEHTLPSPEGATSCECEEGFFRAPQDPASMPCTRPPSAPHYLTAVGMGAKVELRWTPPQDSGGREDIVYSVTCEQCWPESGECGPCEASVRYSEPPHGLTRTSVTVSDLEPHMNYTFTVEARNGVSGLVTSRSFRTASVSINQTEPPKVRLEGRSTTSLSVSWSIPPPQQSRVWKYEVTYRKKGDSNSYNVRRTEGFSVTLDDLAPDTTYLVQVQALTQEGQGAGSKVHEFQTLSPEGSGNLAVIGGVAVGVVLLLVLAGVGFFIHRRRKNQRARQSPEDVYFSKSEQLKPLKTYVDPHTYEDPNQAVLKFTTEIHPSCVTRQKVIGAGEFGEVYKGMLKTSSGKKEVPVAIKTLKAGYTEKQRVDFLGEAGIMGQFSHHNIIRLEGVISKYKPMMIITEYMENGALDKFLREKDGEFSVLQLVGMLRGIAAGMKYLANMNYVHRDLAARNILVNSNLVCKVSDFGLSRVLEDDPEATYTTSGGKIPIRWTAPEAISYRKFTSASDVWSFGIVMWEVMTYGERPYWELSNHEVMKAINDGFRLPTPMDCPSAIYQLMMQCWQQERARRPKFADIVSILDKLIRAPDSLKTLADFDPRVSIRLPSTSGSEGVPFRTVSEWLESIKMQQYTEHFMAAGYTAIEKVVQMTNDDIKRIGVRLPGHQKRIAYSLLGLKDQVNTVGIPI

B1: anti-EphA2 scFv antibody D2, monomeric scFv-6xHis (scFv)
scFv: EIVLTQSPGTLSLSPGERATLSCRASQSVSSSNLAWYQQKPGQAPRLLIYGASSRATGVPDRFSGSGSGTDFTLTISRLEPEDFAVYYCQQSSSYPWTFGQGTKVEIKRTGGGGSGAGGSGGGGTGGGGSEVQLLESGGGLVQPGGSLRLSCAASGFTFSRYWMHWVRQAPGKGLEWVSSISPYDGETNYADSVKGRFTISRDNSKNTLYLQMNSLRAEDTAVYYCARISEWYNWAVDVFDYWGQGTLVTVSSHHHHHH
Regarding B1, the “decrease in cell number after 72 hours in culture relative to vehicle control treatment, 0.5 ug, EphA2-high AML cells” value stood at 52.6% and the “decrease in cell number after 72 hours in culture relative to vehicle control treatment, 1.0 ug, EphA2-high AML cells” value came to 99.3%.

(Values after patent US20170349663A1 (Memorial Sloan Kettering, published 2017).)
